In PMC13214397, “De novo biosynthesis of alpinetin enhanced by directed evolution of 5-O-methyltransferase” (Microbial Cell Factories, 2026):
Where a chain is given by its changes, count along the chain named. In names and notes the source's numbering stands.

B1: StrAOMT (Streptomyces avermitilis MA-4680 = NBRC 14893) (protein)
chain: MSESQQLWDDVDDYFTTLLAPEDEALTAALRDSDAAGLPHINVAPNQGKLLQLLAEIQGARRILEIGTLGGYSTIWLGRALPRDGRLISFEYDAKHAEVARRNLARAGLDGISEVRVGPALESLPKLADERPEPFDLVFIDADKVNNPHYVEWALKLTRPGSLIVVDNVVRGGGVTDAGSTDPSVRGTRSALELIAEHPKLSGTAVQTVGSKGYDGFALARVLP
notes: recombinant from pET21b in E. coli BL21(DE3), codon-optimized
B2: StrAOMT (Streptomyces avermitilis MA-4680 = NBRC 14893; I41L/K212R/R171W) (protein)
chain: B1 chain with I41L, R171W, K212R
notes: as for B1

Columns and labels:
[1] = substrate: O=C1C[C@@H](c2ccccc2)Oc2cc(O)cc(O)c21; assay: initial rates of alpinetin formation by HPLC, Michaelis-Menten fit; format: biochemical, Streptomyces avermitilis; settings: 2 mM SAM (fixed), 2 mM Mg2+, 50 uM enzyme, Tris-HCl pH 7.5, 37 °C, apparent initial velocities
Text: initial rates of alpinetin formation by HPLC, Michaelis-Menten fit on StrAOMT | we performed steady-state kinetic assays for StrAOMT wild-type and StrAOMT I41L/R171W/K212R

[2] = substrate: O=C1C[C@@H](c2ccccc2)Oc2cc(O)cc(O)c21; assay: as above; format: biochemical, Streptomyces avermitilis; settings: 2 mM SAM (fixed), 2 mM Mg2+, 50 uM enzyme, Tris-HCl pH 7.5, 37 °C, apparent initial velocities; remark: listed apart in the source
Text: initial rates of alpinetin formation by HPLC, Michaelis-Menten fit on StrAOMT | KM of StrAOMT wild type is twice that of the StrAOMT triple mutant

| Protein | Km [1] [µM] | kcat [1] [s⁻¹] | Km [2] [µM] | kcat [2] [s⁻¹] |
| --- | --- | --- | --- | --- |
| B1 | 313.2 | 2.83e-05 |  |  |
| B2 |  |  | 156.4 | 9.33e-05 |
